Reference: US20140120095A1 (Boehringer Ingelheim, published 2014)

How the values were obtained:
[1] = target: T1, recombinant human DLL4 (human, UniProt Q9NR61 25-522); assay: Biacore off-rate, periplasmic extract
T1 construct: also called rhDLL4; hDLL4

[2] = target: T2, mouse DLL4 overexpressed on cells (mouse, UniProt Q9JI71 27-686); assay: FMAT, labelled hNotch1-Fc on CHO-mDLL4, periplasmic extract
T2 construct: whole, on cells; also called CHO-mDLL4; CHO-mDII4
Text: (§1) All calculations are based on the FL1_total signal which comprises the average of the fluorescence per well times the number of counts per well.

[3] = target: T3, human DLL4 overexpressed on cells (human, UniProt Q9NR61 27-685); assay: FMAT, labelled hNotch1-Fc on CHO-hDLL4, periplasmic extract
T3 construct: full length human DLL4 on CHO or HEK293 cells; also called CHO-hDLL4; CHO-hDII4
Text: as §1

[4] = target: T4, recombinant human DLL4 (C-terminally His-tagged extracellular domain, R&D Systems) (human, UniProt Q9NR61 25-522, biotinylated in the competition ELISA); assay: competition ELISA hDLL4/hNotch1-Fc; summary table
T4 construct: also called rhDLL4; hDLL4

[5] = target: T5, recombinant mouse DLL4 (C-terminally His-tagged extracellular domain, R&D Systems) (mouse, UniProt Q9JI71 27-532); assay: ProteOn off-rate screen, periplasmic extract, coated mouse DLL4
T5 construct: extracellular domain; also called rmDLL4; mDLL4
T5 sequence (Q9JI71 27-532): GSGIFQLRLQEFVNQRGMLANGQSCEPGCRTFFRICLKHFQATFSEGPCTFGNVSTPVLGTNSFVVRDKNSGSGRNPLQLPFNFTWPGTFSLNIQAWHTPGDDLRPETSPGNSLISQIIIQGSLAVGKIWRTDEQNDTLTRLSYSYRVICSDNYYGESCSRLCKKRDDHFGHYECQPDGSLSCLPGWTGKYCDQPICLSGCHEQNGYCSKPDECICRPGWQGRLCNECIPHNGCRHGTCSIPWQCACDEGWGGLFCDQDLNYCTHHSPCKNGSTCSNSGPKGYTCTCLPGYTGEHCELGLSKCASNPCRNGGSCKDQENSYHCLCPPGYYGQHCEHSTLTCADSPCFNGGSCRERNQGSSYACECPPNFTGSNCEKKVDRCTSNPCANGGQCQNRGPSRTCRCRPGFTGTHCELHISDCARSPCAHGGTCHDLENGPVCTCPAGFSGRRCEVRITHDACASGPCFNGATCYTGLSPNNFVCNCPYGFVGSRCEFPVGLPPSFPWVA
Experimental: (§2) In a first cycle, amino acid substitutions are introduced randomly in both framework (FW) and complementary determining regions (CDR) using the error-prone PCR method. […] After a polish step, PCR products are inserted via unique restriction sites into a vector designed to facilitate phage display of the VHH library. Consecutive rounds of in-solution selections are performed using decreasing concentrations of biotinylated recombinant human DLL4 (biot-rhDLL4) and trypsin elutions. Affinity-driven selections in a third round using cold rhDLL4 (at least 100× excess over biot-rhDLL4) are also performed. No selections on murine DLL4 are included as (conservation of) cross-reactivity is assessed at the screening level. Individual mutants are produced as recombinant protein using an expression vector derived from pUC119, which contains the LacZ promoter, a resistance gene for ampicillin, a multiple cloning site and an ompA leader sequence (pAX50). E. coliTG1 cells are transformed with the expression vector library and plated on agar plates (LB+Amp+2% glucose). Single colonies are picked from the agar plates and grown in 1 mL 96-deep-well plates. VHH expression is induced by adding IPTG (1 mM). Periplasmic extracts (in a volume of ˜80 uL) are prepared according to standard methods and screened for binding to recombinant human and mouse DII4 in a ProteOn (BioRad, Hercules, Calif., USA) off-rate assay. In brief, a GLC ProteOn Sensor chip is coated with recombinant human DII4 on the “ligand channels” L2 and L4 (with L1/L3 as reference channel), while “ligand channels” […] is coated with mouse DII4. Periplasmic extract of affinity-matured clones is diluted 1/10 and injected across the “analyte channels” A1-A6. An average off-rate is calculated of the wild type clones present in the plate and served as a reference to calculate off-rate improvements.

[6] = target: T4, recombinant human DLL4 (C-terminally …); assay: SPR (Biacore), rhDLL4
Experimental: Kinetic analysis to determine the affinity of the DII4-VHH interaction is performed by Surface Plasmon Resonance (SPR) on a Biacore T100 instrument. […] Purified VHHs or Fab fragment are injected for 2 minutes at different concentrations (between 10 and 300 nM) and allowed to dissociate for 20 min at a flow rate of 45 μl/min. Between sample injections, the surfaces are regenerated with 10 mM glycine pH1.5 and 100 mM HCl. HBS-N (Hepes buffer pH7.4) is used as running buffer. If possible, data are evaluated by fitting a 1:1 interaction model (Langmuir binding) onto the binding curves. The affinity constant KD is calculated from resulting association and dissociation rate constants (kₐ) and […].

[7] = target: T4, recombinant human DLL4 (C-terminally …); assay: SPR (Biacore); summary table
[8] = target: T4, recombinant human DLL4 (C-terminally …); assay: ProteOn off-rate screen, periplasmic extract, coated human DLL4
Experimental: as §2

[9] = target: T4, recombinant human DLL4 (C-terminally …); assay: competition ELISA, biotinylated hDLL4 to coated hNotch1-Fc
[10] = target: T6, recombinant human VEGF165 (human, UniProt P15692-4 27-191, biotinylated in the competition assays); assay: AlphaScreen, hVEGF165/hVEGFR2-Fc competition; set-up: % inhibition: concentration or dose not given beside the values
T6 construct: Bought protein; also called hVEGF165; rhVEGF165
T6 sequence (P15692 other isoform, or with tags, fused parts or gaps): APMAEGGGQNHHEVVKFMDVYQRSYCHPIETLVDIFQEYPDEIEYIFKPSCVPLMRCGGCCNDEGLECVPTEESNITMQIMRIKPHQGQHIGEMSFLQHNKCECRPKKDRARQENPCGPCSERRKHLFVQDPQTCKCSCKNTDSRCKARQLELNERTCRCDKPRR

T2 sequence (Q9JI71 27-686): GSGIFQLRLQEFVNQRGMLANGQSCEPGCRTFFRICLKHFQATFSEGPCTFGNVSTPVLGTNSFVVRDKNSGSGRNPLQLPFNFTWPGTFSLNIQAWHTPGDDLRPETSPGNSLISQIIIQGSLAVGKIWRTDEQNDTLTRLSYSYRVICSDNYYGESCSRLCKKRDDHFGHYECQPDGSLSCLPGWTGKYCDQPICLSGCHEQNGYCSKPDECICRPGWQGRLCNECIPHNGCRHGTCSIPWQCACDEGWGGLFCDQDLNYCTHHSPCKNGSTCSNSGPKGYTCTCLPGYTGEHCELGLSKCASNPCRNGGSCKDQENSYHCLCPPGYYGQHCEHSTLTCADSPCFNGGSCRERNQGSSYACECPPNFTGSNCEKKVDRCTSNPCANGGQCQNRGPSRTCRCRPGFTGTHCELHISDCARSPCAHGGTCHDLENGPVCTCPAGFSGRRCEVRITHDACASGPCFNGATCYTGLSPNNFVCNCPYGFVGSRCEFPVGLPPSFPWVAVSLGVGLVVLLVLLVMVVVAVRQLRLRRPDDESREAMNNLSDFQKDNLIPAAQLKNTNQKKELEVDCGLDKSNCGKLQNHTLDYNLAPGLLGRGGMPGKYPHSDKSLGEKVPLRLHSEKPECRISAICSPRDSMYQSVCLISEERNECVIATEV

B1: DLLBII58A11 (VHH)
VHH: EVQLVESGGGLVQAGGSLRLSCTTSERTVSRYSMGWFRQAPGKEREAVATISWSGDSTYYADSVKGRFTISRDNTKNTLYLQIDSLKPEDTAVYYCVAKPNLKYGSYWPPRGYDYWGQGTQVTVSS
- koff [1]: 0.0016 s⁻¹
- % inh [2]: 73%
- % inh [3]: 95%

B2: DLLBII129A03 (VHH, not shown: small tags and cut ends)
VHH: EVQLVESGGGLVQAGGSLRLSCAASGRTFSSYAMAWFRQAPGKEREYVAAIRWSGGTAYYADSVQGRFTISRDNAKNTVYLQMNSLRPEDTAVYYCANRAPDTRLRPYLYDYWGQGTQVTVSS
- IC50 [4]: 1.8 nM
- fold (off-rate vs DLLBII101G08) [5]: 18 fold
- koff [5]: 0.00038 s⁻¹
- Kd [6]: 0.5 nM
- koff [6]: 0.00012 s⁻¹
- kon [6]: 210000 M⁻¹ s⁻¹
- Kd [7]: 0.5 nM
- fold (off-rate vs DLLBII101G08) [8]: 19 fold
- koff [8]: 0.00012 s⁻¹
- IC50 [9]: 1.8 nM

B3: DLLBII130F06 (VHH, not shown: small tags and cut ends)
VHH: EVQLVESGGGLVQAGGSLRLSCAASGRTFSSYAMAWYRQAPGKEREYVAAIRWSGGTAYYADSVQGRFTISRDNAKNTVYLQMNSLKPEDTAVYYCANRAPDTRLAPYEYDYWGQGTQVTVSS
- IC50 [4]: 1.3 nM
- fold (off-rate vs DLLBII101G08) [5]: 19 fold
- koff [5]: 0.00026 s⁻¹
- Kd [6]: 0.4 nM
- koff [6]: 8e-05 s⁻¹
- kon [6]: 200000 M⁻¹ s⁻¹
- Kd [7]: 0.4 nM
- fold (off-rate vs DLLBII101G08) [8]: 27 fold
- koff [8]: 6.5e-05 s⁻¹
- IC50 [9]: 1.3 nM

B4: DLLBII129H07 (VHH, not shown: small tags and cut ends)
VHH: EVQLVESGGGLVQAGGSLRLSCAASGRTFSSYAMAWYRQAPGKEREYVAAIRWSGGTAYYADSVQGRFTISRDNAKNTVYLQMNSLKPEDTAVYYCANRAPDTRLEPYEYDYWGQGTQVTVSS
- IC50 [4]: 1 nM
- fold (off-rate vs DLLBII101G08) [5]: 27 fold
- koff [5]: 0.00025 s⁻¹
- Kd [6]: 0.5 nM
- koff [6]: 7.3e-05 s⁻¹
- kon [6]: 160000 M⁻¹ s⁻¹
- Kd [7]: 0.5 nM
- fold (off-rate vs DLLBII101G08) [8]: 30 fold
- koff [8]: 7.4e-05 s⁻¹
- IC50 [9]: 1 nM

B5: DLLBII130B03 (VHH, not shown: small tags and cut ends)
VHH: EVQLVESGGGLVQAGGSLRLSCAASGRTFSSYAMAWYRQAPGKEREYVAAIRWSGGTAYYADSVQGRFTISRDNAKNTVYLQMNSLKPEDTAVYYCANRAPDTRLAPYLYDYWGQGTQVTVSS
- IC50 [4]: 1.5 nM
- fold (off-rate vs DLLBII101G08) [5]: 20 fold
- koff [5]: 0.00024 s⁻¹
- Kd [6]: 0.3 nM
- koff [6]: 6.8e-05 s⁻¹
- kon [6]: 220000 M⁻¹ s⁻¹
- Kd [7]: 0.3 nM
- fold (off-rate vs DLLBII101G08) [8]: 27 fold
- koff [8]: 6.7e-05 s⁻¹
- IC50 [9]: 1.5 nM

B6: VEGFBII111D05 (VHH)
VHH: EVQLVESGGGLVQTGGSLRLSCEASGRTFSSYSMGWFRQAPGKEREFVVAISKGGYKYDSVSLEGRFTISRDNAKNTVYLQINSLRPEDTAVYYCASSRAYGSSRLRLADTYEYWGQGTLVTVSS
- % inhibition [10]: 100%
- IC50 [10]: 0.209 nM

B7: VEGFBII114D02 (VHH)
VHH: EVQLVESGGGLVQTGGSLRLSCEVSGRTFSSYSMGWFRQAPGKEREFVVAISKGGYKYDSVSLEGRFTISRDNAKNTVYLQINSLRPEDTAVYYCASSRAYGSSRLRLADTYEYWGQGTLVTVSS
- % inhibition [10]: 100%
- IC50 [10]: 0.199 nM

B8: VEGFBII114D03 (VHH)
VHH: EVQLVESGGGLVQTGDSLRLSCAVSGRTFSSYSMGWFRQAQGKEREFVVAISKGGYKYDSVSLEGRFTISKDNAKNTVYLQINSLRPEDTAVYYCASSRAYGSSRLRLADTYEYWGQGTLVTVSS
- % inhibition [10]: 100%
- IC50 [10]: 0.227 nM

B9: VEGFBII112D11 (VHH)
VHH: EVQLVESGGGLVQPGGSLRLSCEASGRTFSSYSMGWFRQAPGKEREFVVAISKGGYKYDSVSLEGRFTISRDNAKNTVYLQINSLRPEDTAVYYCASSRAYGSSRLRLADTYEYWGQGTLVTVSS
- % inhibition [10]: 100%
- IC50 [10]: 0.221 nM

B10: VEGFBII114C09 (VHH)
VHH: EVQLVESGGGLVQPGDSLRLSCEVSGRTFSSYSMGWFRQAPGKEREFVVAISKGGYKYDSVSLEGRFTISKDNAKNTVYLQINSLRPEDTAVYYCASSRAYGSSRLRLADTYEYWGQGTLVTVSS
- % inhibition [10]: 100%
- IC50 [10]: 0.215 nM

B11: VEGFBII111G06 (VHH)
VHH: EVQLVESGGGLVQPGGSLRLSCAASGRTFSSYSMGWFRQAPGKEREFVVAISKGGYKYDSVSLEGRFTISRDNAKNTVYLQMNSLRPEDTAVYYCASSRAYGSSRLRLADTYEYWGQGTLVTVSS
- % inhibition [10]: 100%
- IC50 [10]: 0.366 nM

B12: VEGFBII118E10 (VHH)
VHH: EVQLVESGGGLVQTGDSLRLSCEVSGRTFSSYSMGWFRQAQGKEREFVVAISKGGYKYDAVSLEGRFTISKDNAKNTVYLQINSLKPEDTAVYYCASSRAYGSSRLRLADTYEYWGQGTQVTVSS
- % inhibition [10]: 100%
- IC50 [10]: 0.189 nM

B13: VEGFBII113E03 (VHH)
VHH: EVQLVESGGGLVQTGDSLRLSCEVSGRTFSSYSMGWFRQAQGKEREFVVAISKGGYKYDSVSLEGRFTISKDNAKNTVYLQMNSLRPEDTAVYYCASSRAYGSSRLRLADTYEYWGQGTLVTVSS
- % inhibition [10]: 100%
- IC50 [10]: 0.29 nM

B14: VEGFBII113A08 (VHH)
VHH: EVQLVESGGGLVQTGGSLRLSCEVSGRTFSSYSMGWFRQAPGKEREFVVAISKGGYKYDSVSLEGRFTISKDNAKNTVYLQINSLRPEDTAVYYCASSRAYGSSRLRLADTYEYWGQGTLVTVSS
- % inhibition [10]: 100%
- IC50 [10]: 0.253 nM

B15: DLLBII104C04 (VHH)
VHH: EVQLVESGGGLVQAGGSLRLSCAAAGSTFSSYVMGWYRQAPGKQRELVAHISTRGITYYADSVKGRFTISRDNAKNTMYLQMNSLKPEDTAVYYCNTRRNFLSNYWGQGTQVTVSS
- koff [1]: 0.001 s⁻¹
- % inh [2]: 83%
- % inh [3]: 87%

B16: DLLBII80E08 (VHH)
VHH: EVQLVESGGGLVQAGGSLTLSCAASGGTFTTYAMGWFRQAPGKEREFVAAVSRFGVSWDYADSVKGRFTISRDNTANTLKLRMNSLKADDTAVYYCAAGGRSFLPFVPAYWGQGTQVTVSS
- % inh [2]: 82%
- % inh [3]: 71%

B17: DLLBII95F02 (VHH)
VHH: EVQLVESGGGSVQAGGSLRLSCAASGRTFSSYAMGWFRQAPGKEREFVAAINWSGGYTYYADSVRGRFTISRDNAKNTVYLQMNSLKPEDTAVYYCAAPAPGSSGYEYDYWGQGTQVTVSS
- koff [1]: 0.00067 s⁻¹
- % inh [2]: 71%
- % inh [3]: 81%

B18: DLLBII133A05 (VHH)
VHH: EVQLVESGGGLVQPGGSLRLSCAASGFTFGSYDMSWVRRSPGKGPEWVSAINSGGGSTFYTDYVKGRFTISRDNAKNTLYLQMNSLKPEDTAVYYCAADRYIWARQGEYWGAYQYDYWGQGTQVTVSS
- IC50 [4]: 2.1 nM
- IC50 [9]: 2.1 nM
